Experimental findings from patent publication US20170087188A1, “WNT INDUCED MOTILITY AND ENHANCED ENGRAFTMENT OF CELLS” (OTTAWA HOSPITAL RESEARCH INSTITUTE, priority 2014, published 2017) are described below.

“Also recorded” adds a separate entry of the source.

In assay [1] the test system is Rac1 association with Dvl2. As to the kind of experiment: Co-IP of Rac1 with Dvl2 in primary myoblasts. The class given is cell-based, mouse. Conditions: Wnt7a stimulated (infected) primary myoblasts vs EV. From the text: Wnt7a signaling in satellite cells involves Rac1. Polarized peripheral Fzd7-tdTomato colocalized with GFP-Rac1 in C2C12 cells (FIG. 3A). It was hypothesized that the small GTPase Rac1 might also be involved in Wnt7a mediated cell polarization and migration. […] Various forms of Wnt signaling require Disheveled (Dvl) proteins.
For co-immunoprecipitation (CoIP) experiments and the Rac1 activation assay, satellite cell-derived primary myoblasts were infected with retroviruses generated from empty pHAN or from pHAN-Wnt7a-HA (Kuroda et al., 2013). Dvl2 knockdown was performed with an ON-TARGETplus siRNA SMARTpool (L-040921-01, Thermo Fisher Scientific) (Wu et al., 2008) using Lipofectamine RNAiMAX (Life Technologies) according to the manufacturer's instructions. As a control for the knockdown, a non-silencing siRNA SMARTpool was used (D-001810-10, Thermo Fisher Scientific). Cell extracts were obtained through RIPA buffer lysis in the presence of a protease inhibitor cocktail (Nacalai). For CoIP of Rac1 with Dvl2, rabbit anti-Dvl2 antibody was coupled to Protein A Dynabeads (Life Technologies). Denaturing SDS-PAGE was performed using standard techniques. Rac1 activation assay was performed according to the manufacturer's instructions (Pierce).

The next assay has as its system β-catenin signaling. As to the kind of experiment: TOP-flash luciferase reporter assay in C2C12 cells. The class given is cell-based. Particulars: different concentrations. The procedure: Different concentrations of Wnt7a were tested to exclude a dose dependent effect on β-catenin signaling, as measured by induction of TOP-flash activity in C2C12 cells.
The UBC-Fzd7-Flag (Fzd7-Flag), CMV-Fzd7-EYFP (Fzd7-YFP), CMV-Fzd3-EYFP (Fzd3-YFP), CMV-EYFP (YFP), CMV-EGFP-Rac1-wt (GFP-Rac1, 12980, Addgene), CMV-EGFP-Rac1-T17N (Rac1-DN, 12982, Addgene), CMV-EGFP-RhoA-T19N (RhoA-DN, 12967, Addgene) and CMV-EGFP-Cdc42-T17N (Cdc42-DN, 12976, Addgene) constructs have been described previously (Bentzinger et al., 2013a; Subauste et al., 2000; von Maltzahn et al., 2011). The Fzd7-tdtomato plasmid was generated by replacing the C-terminal YFP in Fzd7-YFP with tdTomato. For TOP-flash and FOP-flash the TCF reporter plasmid kit (17-285, Millipore) was used with the dual-luciferase reporter assay system (E1960, Promega). For normalization pGL4.74[hRluc/TK] (E6921, Promega) was cotransfected. For TOP-flash and FOP-flash assays the cells were transfected with GenJet lipofection reagent (SL100499, SignaGen). Otherwise, Lipofectamine 2000 (11668019, Life Technologies) was used for transfections.

In a further assay the test system is mdx mice. As to the kind of experiment: Transplantation of Wnt-treated satellite cells into TA of mdx mice. Format: in vivo, mouse. As for the experimental part:
It is known that poor migration of myogenic cells upon intramuscular injection is a major hurdle for the development of cell based therapies for muscular dystrophy (Skuk et al., 2007). The present inventors tested whether satellite cells treated with Wnt7a ex vivo prior to transplantation would enhance engraftment. 10,000 satellite cells were isolated from Pax7-zsGreen mice by fluorescent activated cell sorting (Bosnakovski et al., 2008), treated with Wnt7a for 3 h; washed extensively; and transplanted into the TA of immunosuppressed dystrophin-deficient mdx mice that were injured with cardiotoxin 2 days before the procedure (FIG. 6A).
Transplantation of zsGreen-expressing satellite cells or myoblasts into mdx mice was performed as previously described (Bentzinger et al., 2013c). Before transplantation the cells were treated for 3 h with Wnt7a, Wnt5a, or Wnt3a (R&D Systems) at a concentration of 50 ng/mL for freshly isolated satellite cells or with 100 ng/mL for cultured cells. Myoblasts expressing tdTomato were transplanted into uninjured muscles of C57BL/6 mice that were implanted with an osmotic pump (Alzet) delivering FK506 (Sigma) at 2.5 mg/kg/day 3 days prior to the transplantations. In some experiments, the injection site was marked with blue fluorescent microspheres (2 μm, Life Technologies) that were added at a concentration of 1:100 (vol/vol) to the cell suspension. 10 μl of the cell-microsphere suspension was injected into the TA of each mouse using a Hamilton syringe.
Muscles frozen in liquid nitrogen were cut into 12 μm cross-sections. Cross-sections and cells were either fixed with ethanol (100%) or 2% PFA for 5 min, permeabilized with 0.1% Triton/0.1 M glycine/PBS for 10 min, blocked with 5% horse serum in PBS for several hours, and incubated with specific primary antibody in blocking buffer overnight at 4° C. Samples were subsequently washed with PBS and stained with appropriate fluorescently labeled secondary antibodies for 1 h at room temperature. After washing with PBS, samples were mounted with Permafluor (Fisher). Antibodies were as follows: chicken anti-GFP (Abcam, ab13970), mouse anti-Pax7 (DSHB), mouse anti-Dystrophin (7A10, DSHB), mouse anti-Rac1 (05-389, Millipore), mouse anti-Tubulin (Sigma, T9026), rabbit anti-Dvl2 (3224, Cell Signaling), rabbit anti-zsGreen (Clontech, 632474), rabbit anti-Laminin (Sigma, L9393), rabbit anti-HA (Millipore, 07-221).

Assay [2] relates to mdx extensor digitorum longus (EDL) muscles. As to the kind of experiment: Muscle force measurement of mdx EDL muscles after satellite cell transplantation. Format: in vivo, mouse. Particulars: 3,000 satellite cells treated ex vivo, compared to Veh. From the text:
Under normal conditions, a portion of transplanted satellite cells will differentiate and fuse to muscle myofibers. In mdx mice, this process can be tracked by staining for restored dystrophin expression in muscle fibers. […] Similar to the stimulatory effect of Wnt7a on myogenic cell migration in vitro, clusters of dystrophin-expressing myofibers in muscles that were transplanted with Wnt7a-treated cells were highly dispersed and on average located maximally 3.7 mm apart. By contrast, transplantation of untreated cells gave rise to clusters of dystrophin-expressing myofibers that were on maximally 2.2 mm apart on average (FIGS. 6F and 6G).
Extensor digitorum longus (EDL) muscles were isolated three weeks following transplantation and attached to an electrode and a force sensor (Aurora Scientific), and incubated at 25° C. in buffered physiological saline (Krebs-Ringer) supplemented with glucose and oxygen. Twitch force was determined following a single electrical stimulus, while maximal force was generated by electrical stimulation at 100 Hz for 500 ms. Thereafter, muscle length and weight were measured and specific muscle force was calculated ((maximal force×optimal fiber length×muscle density)/muscle mass).

B1: Wnt7a: non-canonical Wnt polypeptide (R&D Systems) used to treat or load myogenic cells (protein, UniProt O00755 32-349, looked up)
Protein Wnt-7a: LGASIICNKIPGLAPRQRAICQSRPDAIIVIGEGSQMGLDECQFQFRNGRWNCSALGERTVFGKELKVGSREAAFTYAIIAAGVAHAITAACTQGNLSDCGCDKEKQGQYHRDEGWKWGGCSADIRYGIGFAKVFVDAREIKQNARTLMNLHNNEAGRKILEENMKLECKCHGVSGSCTTKTCWTTLPQFRELGYVLKDKYNEAVHVEPVRASRNKRPTFLKIKKPLSYRKPMDTDLVYIEKSPNYCEEDPVTGSVGTQGRACNKTAPQASGCDLMCCGRGYNTHQYARVWQCNCKFHWCCYVKCNTCSERTEMYTCK
Regarding B1, the “Rac1 association with Dvl2” value in assay [1] is “increased Rac1 association with Dvl2”. For the same molecule, in the assay with β-catenin signaling, the TOP-flash reporter activity entry was “does not activate the TOP-flash reporter at any tested concentration; also recorded: did not increase TOP-flash reporter activity”. Further, the “enhanced engraftment of zsGreen-expressing cells” value in the assay with mdx mice (10,000 satellite cells treated 3 h (50 ng/mL), mdx TA, after 3 weeks, vs Veh.) came to 69%. Moreover, the “numbers of endogenous satellite cells” value in the assay with mdx mice (Pax7+/zsGreen− cells in host mdx muscle, vs Veh.) is reported as “not significantly changed; also recorded: not altered”. In addition, in the assay on mdx mice (myofibers fused with Wnt7a treated satellite cells, mdx TA), the “hypertrophy of dystrophin-expressing myofibers (minimal feret)” value is on record as 116%. For the same molecule, the “proportion of zsGreen+ engrafted cells that express Ki67” value with mdx mice (satellite cells into mdx TA, vs Veh.) was “do not show more Ki67 staining; also recorded: did not alter”. Further, in the assay on mdx mice (satellite cells treated 3 h, mdx TA, average), the “maximal distance between clusters of dystrophin-expressing myofibers” value was found to be 3.7 mm. For the same molecule, in the assay with mdx mice (satellite cells treated 3 h, mdx TA, vs Veh.), the “increase in number of myofibers expressing dystrophin” value turned out to be 486%. In assay [2], the “increase in maximal specific force generation” value was 18% and the “increase in twitch tension” value stood at 30%.
